Reference: PMC11099023

Biological target: Asparaginase-like 1 protein (ASRGL1), recombinant full-length (UniProt Q7L266)
Test: differential scanning fluorimetry (protein thermal shift assay); recombinant ASRGL1 with increasing concentrations of TDP-43 in PBS (10 mM phosphate, 150 mM NaCl, pH 7.4), 30 min at 25 °C, ramp 25 to 99 °C; Tm plotted against TDP-43 concentration, inflection point of a sigmoidal fit …

Chain of UniProt Q7L266 (Q7L266 whole entry): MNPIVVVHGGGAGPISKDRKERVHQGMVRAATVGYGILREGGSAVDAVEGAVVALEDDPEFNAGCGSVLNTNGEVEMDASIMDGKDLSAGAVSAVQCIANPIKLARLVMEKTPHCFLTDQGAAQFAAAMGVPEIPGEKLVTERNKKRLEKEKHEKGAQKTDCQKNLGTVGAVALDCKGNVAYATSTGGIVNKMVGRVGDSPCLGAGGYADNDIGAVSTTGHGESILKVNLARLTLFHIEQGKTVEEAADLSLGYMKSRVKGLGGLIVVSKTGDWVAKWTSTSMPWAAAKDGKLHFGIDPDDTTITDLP

“TAR DNA-binding protein 43 (TDP-43), native form, recombinant full-length (from UniProt Q13148 1-414) (natural protein)” gave an EC50 of 36.1 nM and a shift in Tm of ASRGL1 with 1 μM TDP-43 of 10 °C.
